Experimental data reported in the supplement of paper PMC10126150.
± gives the standard deviation of the averaged measurements.

Tested on: ATP
Assay: switch fluorescence ratio, 500 uM ATP over buffer (Cy3 cluster intensity, sum of 5 cycles each) (fold (ratio)); higher = stronger signal-on switching upon ATP binding; sequences stand for … in TCGTCGGCAGCGTCAGATGTGTATAAGAGACAGTTTTTTTTTTTTTTTTTTTTTTTTT…TC
Conditions: aptamer strand: ATP DNA aptamer (quencher-CACCTGGGGGAGTATTGCGGAGGAAGG + anchor), 100 nM annealed; ATP concentration: 500 uM
How it was run: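 Clusters with intensities outside 100-1000 RFU were excluded. The remaining Cy3-labelled switching-strand clusters on a modified Illumina MiSeq flow-cell had been annealed to 100 nM quencher-labelled ATP aptamer and imaged in selection buffer, then after 15 min with 500 uM ATP at 22 °C, for five cycles separated by NaOH stripping and re-annealing. The fluorescence ratio, averaged per switch-domain sequence, is each cluster's summed target-cycle Cy3 intensity over its summed buffer-cycle Cy3 intensity.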
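Further: ATP exposure 15 min at 22 °C before imaging.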

Sequence	switch fluorescence ratio
GTGATGCTGC	1.07 ± 0.015
GTGATTCAGG	0.989 ± 0.029
GTGATTCCGA	1.02 ± 0.029
GTGATTCTTG	0.9745 ± 0.0022
GTGATTGGAG	0.966 ± 0.025
GTGCATGGGA	0.997 ± 0.055
GTGCCTAGTG	1.017 ± 0.01
GTGCGCGGCC	1.01 ± 0.051
GTGCTCAGGG	1.02 ± 0.077
GTGGAAAGTA	0.997 ± 0.011
GTGGAAATCA	1.01 ± 0.029
GTGGAAATGG	1.01 ± 0.022
GTGGAACCTT	1.24 ± 0.2
GTGGAAGGCA	0.9925 ± 0.0025
GTGGAAGGGT	1.02 ± 0.042
GTGGAATTTT	1.01 ± 0.0057
GTGGACAAGG	0.978 ± 0.031
GTGGACATTA	1.01 ± 0.012
GTGGAGTAAG	1.01 ± 0.023
GTGGATACTA	1.009 ± 0.0047
GTGGATAGGT	1.01 ± 0.045
GTGGATATAG	0.99333 ± 0.00046
GTGGATTTGA	1.01 ± 0.013
GTGGCAACAA	0.984 ± 0.035
GTGGCCCCGG	1.02 ± 0.043

Sequence	switch fluorescence ratio
GTGGGAAAGT	1.04 ± 0.015
GTGGGAATGG	0.9747 ± 0.0072
GTGGGAGCGT	0.97882 ± 0.00039
GTGGGAGGGG	1 ± 0.015
GTGGGAGTTG	0.969 ± 0.04
GTGGGATTGG	1.01 ± 0.027
GTGGGATTTT	0.986 ± 0.062
GTGGGCAGCG	0.9666 ± 0.0047
GTGGGCCAGC	0.964 ± 0.082
GTGGGCCTTT	0.987 ± 0.015
GTGGGCTGTT	1.01 ± 0.06
GTGGGGAAAA	0.994 ± 0.035
GTGGGGCGCA	1.01 ± 0.026
GTGGGGCGTG	1 ± 0.03
GTGGGGGATT	0.996 ± 0.03
GTGGGGGGAA	0.98 ± 0.018
GTGGGGGGAT	0.999 ± 0.023
GTGGGGGGCA	0.991 ± 0.033
GTGGGGGGGT	0.992 ± 0.026
GTGGGGGTAG	0.99 ± 0.032
GTGGGGTAAG	0.987 ± 0.014
GTGGGGTCGG	0.979 ± 0.0057
GTGGGGTGTG	1.01 ± 0.021
GTGGGGTTGG	0.981 ± 0.021
GTGGGTATGG	1.002 ± 0.01

Sequence	switch fluorescence ratio
GTGGGTATGT	0.983 ± 0.017
GTGGGTCGTA	0.985 ± 0.046
GTGGGTTATT	0.999 ± 0.016
GTGGGTTTGC	1.03 ± 0.03
GTGGTAAACG	1 ± 0.029
GTGGTACGGA	1.0044 ± 0.00029
GTGGTATATG	0.997 ± 0.0073
GTGGTCAGGC	0.975 ± 0.022
GTGGTCAGGG	0.9855 ± 0.0092
GTGGTCGAGA	0.986 ± 0.033
GTGGTCGGTA	0.952 ± 0.084
GTGGTCTCCG	0.982 ± 0.038
GTGGTGAAGG	0.99 ± 0.039
GTGGTGAGGT	0.966 ± 0.02
GTGGTGCGGA	0.943 ± 0.052
GTGGTGGGAC	0.972 ± 0.042
GTGGTGGGGA	1 ± 0.024
GTGGTGGGGT	1.01 ± 0.028
GTGGTGGGTA	0.947 ± 0.073
GTGGTGTATC	1.02 ± 0.019
GTGGTGTCGT	0.984 ± 0.016
GTGGTGTGTT	1.05 ± 0.14
GTGGTGTTTT	1 ± 0.015
GTGGTTGGGG	1.01 ± 0.028
GTGGTTGGTA	1.02 ± 0.03

Sequence	switch fluorescence ratio
GTGGTTTCTG	0.984 ± 0.1
GTGGTTTTTT	0.996 ± 0.022
GTGTAAAGAC	1.03 ± 0.053
GTGTAAAGTG	0.949 ± 0.047
GTGTAAAGTT	0.972 ± 0.021
GTGTAAGATG	1.0023 ± 0.0005
GTGTAATGAG	0.964 ± 0.014
GTGTACGGGG	0.971 ± 0.026
GTGTACGGGT	0.991 ± 0.012
GTGTAGGGGA	1.0019 ± 0.00055
GTGTATAGCA	1.03 ± 0.014
GTGTATATCG	0.991 ± 0.012
GTGTATCGTC	0.9819 ± 0.0014
GTGTATGAGA	1.002 ± 0.0083
GTGTCAATTT	1.13 ± 0.17
GTGTCATAGC	0.975 ± 0.012
GTGTCATTTA	0.99 ± 0.035
GTGTCCATTG	0.998 ± 0.074
GTGTCGGGGA	1.01 ± 0.071
GTGTCGGGGT	1.002 ± 0.004
GTGTCTAAAT	0.989 ± 0.011
GTGTCTACAT	1.02 ± 0.014
GTGTCTTGGA	0.9893 ± 0.0052
GTGTGAAAGC	1.011 ± 0.0035
GTGTGACACG	1.04 ± 0.064
